Measured values: PMC314469, “Protein Interaction Networks by Proteome Peptide Scanning” (PLoS Biology, 2004)
One block for each binder: values may come before it.

Molecular target: T1, Abp1 SH3 (ABP1_YEAST), P15891
T1 chain: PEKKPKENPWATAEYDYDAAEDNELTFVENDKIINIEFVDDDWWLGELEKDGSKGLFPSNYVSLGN
Experiment: SPOT array

B1: YCL044C 243-255 (peptide)
chain: PIIKWFGPLEYKP
normalised SPOT signal, Boehringer light units (BLU); mean over the file's lines of this peptide: 85.4

B4: YBR041W 461-474 (peptide)
chain: PGEMLMRIFFPKKP
normalised SPOT signal, Boehringer light units (BLU); mean over the file's lines of this peptide: 561

B5: YGL137W 97-110 (peptide)
chain: PDYIRSIAVHPTKP
normalised SPOT signal, Boehringer light units (BLU); mean over the file's lines of this peptide: 51.9

B8: YNL236W 155-168 (peptide)
chain: NVYKIYNHVMPLKP
normalised SPOT signal, Boehringer light units (BLU); mean over the file's lines of this peptide: 0

B11: YGR285C 16-28 (peptide)
chain: NSSATKTPFVRRP
normalised SPOT signal, Boehringer light units (BLU); mean over the file's lines of this peptide: 4320

B12: YLR397C 390-402 (peptide)
chain: NRPNSVDPALRRP
normalised SPOT signal, Boehringer light units (BLU); mean over the file's lines of this peptide: 225

B13: YGL048C 295-307 (peptide)
chain: NRLDILDPALLRP
normalised SPOT signal, Boehringer light units (BLU); mean over the file's lines of this peptide: 101

B14: YBL081W 344-356 (peptide)
chain: NVSSSSQPASSRP
normalised SPOT signal, Boehringer light units (BLU); mean over the file's lines of this peptide: 136

B16: YPL008W 555-568 (peptide)
chain: NYSIKYMLLEPSKP
normalised SPOT signal, Boehringer light units (BLU); mean over the file's lines of this peptide: 103

B17: YGL073W 519-532 (peptide)
chain: NYNSNNNAGSPIRP
normalised SPOT signal, Boehringer light units (BLU); mean over the file's lines of this peptide: 58.5

B18: YGR092W 45-57 (peptide)
chain: PAGINDSPSPVKP
normalised SPOT signal, Boehringer light units (BLU); mean over the file's lines of this peptide: 117

B19: YPL093W 23-35 (peptide)
chain: NRTQRKTPTVIRP
normalised SPOT signal, Boehringer light units (BLU); mean over the file's lines of this peptide: 330

B20: YBR102C 23-35 (peptide)
chain: PAKQKTPPSPAKP
normalised SPOT signal, Boehringer light units (BLU); mean over the file's lines of this peptide: 557

B21: YCR004C 43-56 (peptide)
chain: PDEVLTKMNAPQKP
normalised SPOT signal, Boehringer light units (BLU); mean over the file's lines of this peptide: 81.4

B22: YNL080C 288-301 (peptide)
chain: NRPSVSHSQSPKRP
normalised SPOT signal, Boehringer light units (BLU); mean over the file's lines of this peptide: 704

B23: YGR237C 285-298 (peptide)
chain: NVTDPLAAIYPSRP
normalised SPOT signal, Boehringer light units (BLU); mean over the file's lines of this peptide: 40.9

B25: YHR182W 754-767 (peptide)
chain: PFKTSSTPTTPERP
normalised SPOT signal, Boehringer light units (BLU); mean over the file's lines of this peptide: 138

B27: YGR024C 108-121 (peptide)
chain: NYVALWAKFFPEKP
normalised SPOT signal, Boehringer light units (BLU); mean over the file's lines of this peptide: 103

B29: YPL007C 81-93 (peptide)
chain: NSQPVSYPRVSKP
normalised SPOT signal, Boehringer light units (BLU); mean over the file's lines of this peptide: 220

B30: YKL145W 356-368 (peptide)
chain: NRPNTLDPALLRP
normalised SPOT signal, Boehringer light units (BLU); mean over the file's lines of this peptide: 89.2

B31: YER109C 669-681 (peptide)
chain: NRNTLSTPEEKKP
normalised SPOT signal, Boehringer light units (BLU); mean over the file's lines of this peptide: 201

B32: YCL054W 71-84 (peptide)
chain: NSLIIGVDIVPMKP
normalised SPOT signal, Boehringer light units (BLU); mean over the file's lines of this peptide: 175

B33: YGR270W 562-574 (peptide)
chain: NRPDAVDPALRRP
normalised SPOT signal, Boehringer light units (BLU); mean over the file's lines of this peptide: 53.9

B34: YAL042W 215-228 (peptide)
chain: NRIQGNLHFAPGKP
normalised SPOT signal, Boehringer light units (BLU); mean over the file's lines of this peptide: 253

B37: YMR081C 97-110 (peptide)
chain: PANSTNNSNEPIRP
normalised SPOT signal, Boehringer light units (BLU); mean over the file's lines of this peptide: 131

B39: YLL034C 677-689 (peptide)
chain: NRPDMIDPAMLRP
normalised SPOT signal, Boehringer light units (BLU); mean over the file's lines of this peptide: 19.2

B40: YGL025C 234-247 (peptide)
chain: NSTAAAPIAAPKKP
normalised SPOT signal, Boehringer light units (BLU); mean over the file's lines of this peptide: 201

B41: YDR091C 569-581 (peptide)
chain: NVTFRRDPNSFRP
normalised SPOT signal, Boehringer light units (BLU); mean over the file's lines of this peptide: 363

B42: YDR433W 131-144 (peptide)
chain: PEMLHVKDHQPGKP
normalised SPOT signal, Boehringer light units (BLU); mean over the file's lines of this peptide: 120

B44: YJR083C 40-53 (peptide)
chain: PESKSPRVTTPLKP
normalised SPOT signal, Boehringer light units (BLU); mean over the file's lines of this peptide: 140

B46: YNL034W 542-555 (peptide)
chain: NSAPQLTVPEPSKP
normalised SPOT signal, Boehringer light units (BLU); mean over the file's lines of this peptide: 89.3

B47: YDR464W 659-672 (peptide)
chain: PDLRLTKSGKPKKP
normalised SPOT signal, Boehringer light units (BLU); mean over the file's lines of this peptide: 131

B48: YLR082C 61-74 (peptide)
chain: NSMTGIAQILPTKP
normalised SPOT signal, Boehringer light units (BLU); mean over the file's lines of this peptide: 185

B51: YDR359C 196-208 (peptide)
chain: NSEMASLPISPRP
normalised SPOT signal, Boehringer light units (BLU); mean over the file's lines of this peptide: 64.9

B52: YOL004W 624-637 (peptide)
chain: PIANTQYGDIPVRP
normalised SPOT signal, Boehringer light units (BLU); mean over the file's lines of this peptide: 67

B53: YDL240W 709-722 (peptide)
chain: NRMKIMMSMEPKKP
normalised SPOT signal, Boehringer light units (BLU); mean over the file's lines of this peptide: 810

B54: YML102W 307-319 (peptide)
chain: NRPAIRIPSLKKP
normalised SPOT signal, Boehringer light units (BLU); mean over the file's lines of this peptide: 5260

B55: YOR198C 294-306 (peptide)
chain: NSLLVLDPTYVKP
normalised SPOT signal, Boehringer light units (BLU); mean over the file's lines of this peptide: 14.6

B57: YLR072W 386-399 (peptide)
chain: PFHVQETMDFPYKP
normalised SPOT signal, Boehringer light units (BLU); mean over the file's lines of this peptide: 53

B58: YGL195W 2278-2290 (peptide)
chain: NVLFIKIPMFLRP
normalised SPOT signal, Boehringer light units (BLU); mean over the file's lines of this peptide: 79.2

Results, then the binder that gave them:

normalised SPOT signal, Boehringer light units (BLU); mean over the file's lines of this peptide: 726
B2: YKL064W 123-135 (peptide)
chain: PIMKFSTPSYKKP

normalised SPOT signal, Boehringer light units (BLU); mean over the file's lines of this peptide: 196
B3: YDR085C 528-541 (peptide)
chain: PDSSFDKVETPPKP

normalised SPOT signal, Boehringer light units (BLU); mean over the file's lines of this peptide: 705
B6: YNL139C 1491-1504 (peptide)
chain: NSSQRSQLRFPEKP

normalised SPOT signal, Boehringer light units (BLU); mean over the file's lines of this peptide: 45.4
B7: YDL126C 634-646 (peptide)
chain: NRPDQIDPAILRP

normalised SPOT signal, Boehringer light units (BLU); mean over the file's lines of this peptide: 43
B9: YCL014W 801-814 (peptide)
chain: NVTKETKEILPVKP

normalised SPOT signal, Boehringer light units (BLU); mean over the file's lines of this peptide: 23.6
B10: YLL019C 65-78 (peptide)
chain: NSLDLNQADNPLRP

normalised SPOT signal, Boehringer light units (BLU); mean over the file's lines of this peptide: 116
B15: YMR032W 377-390 (peptide)
chain: NVDDSVLRQKPDKP

normalised SPOT signal, Boehringer light units (BLU); mean over the file's lines of this peptide: 87.6
B24: YDR394W 319-331 (peptide)
chain: NRADTLDPALLRP

normalised SPOT signal, Boehringer light units (BLU); mean over the file's lines of this peptide: 80.2
B26: YER134C 18-31 (peptide)
chain: PSYSDTHLHGPFKP

normalised SPOT signal, Boehringer light units (BLU); mean over the file's lines of this peptide: 0
B28: YOR259C 328-340 (peptide)
chain: NRPDTLDPALLRP

normalised SPOT signal, Boehringer light units (BLU); mean over the file's lines of this peptide: 73.4
B35: YER047C 483-496 (peptide)
chain: NSSSKKTSSHPSRP

normalised SPOT signal, Boehringer light units (BLU); mean over the file's lines of this peptide: 688
B36: YGR156W 131-144 (peptide)
chain: PFEMVTEVPIPRRP

normalised SPOT signal, Boehringer light units (BLU); mean over the file's lines of this peptide: 16.9
B38: YFL011W 29-42 (peptide)
chain: PETREASLDIPYKP

normalised SPOT signal, Boehringer light units (BLU); mean over the file's lines of this peptide: 28.9
B43: YMR042W 16-29 (peptide)
chain: PITGDVETNEPTKP

normalised SPOT signal, Boehringer light units (BLU); mean over the file's lines of this peptide: 1120
B45: YDR436W 382-395 (peptide)
chain: NTMVEMKRKKPVRP

normalised SPOT signal, Boehringer light units (BLU); mean over the file's lines of this peptide: 20.4
B49: YPR185W 391-403 (peptide)
chain: NSSFFNQPPVHRP

normalised SPOT signal, Boehringer light units (BLU); mean over the file's lines of this peptide: 56
B50: YDL053C 27-40 (peptide)
chain: NSNGPTPAVLPQKP

normalised SPOT signal, Boehringer light units (BLU); mean over the file's lines of this peptide: 913
B56: YNL216W 571-584 (peptide)
chain: PEPMKNLTNRPKRP
